Results from paper PMC7672080.

Assays:
[1] = target: mCherry-tagged neuroligin-1 (UniProt Q99K10)
[2] = target: mCherry-tagged neuroligin-1 (UniProt Q99K10); remark: listed apart in the source

Sequence of UniProt Q99K10 (Q99K10 46-843): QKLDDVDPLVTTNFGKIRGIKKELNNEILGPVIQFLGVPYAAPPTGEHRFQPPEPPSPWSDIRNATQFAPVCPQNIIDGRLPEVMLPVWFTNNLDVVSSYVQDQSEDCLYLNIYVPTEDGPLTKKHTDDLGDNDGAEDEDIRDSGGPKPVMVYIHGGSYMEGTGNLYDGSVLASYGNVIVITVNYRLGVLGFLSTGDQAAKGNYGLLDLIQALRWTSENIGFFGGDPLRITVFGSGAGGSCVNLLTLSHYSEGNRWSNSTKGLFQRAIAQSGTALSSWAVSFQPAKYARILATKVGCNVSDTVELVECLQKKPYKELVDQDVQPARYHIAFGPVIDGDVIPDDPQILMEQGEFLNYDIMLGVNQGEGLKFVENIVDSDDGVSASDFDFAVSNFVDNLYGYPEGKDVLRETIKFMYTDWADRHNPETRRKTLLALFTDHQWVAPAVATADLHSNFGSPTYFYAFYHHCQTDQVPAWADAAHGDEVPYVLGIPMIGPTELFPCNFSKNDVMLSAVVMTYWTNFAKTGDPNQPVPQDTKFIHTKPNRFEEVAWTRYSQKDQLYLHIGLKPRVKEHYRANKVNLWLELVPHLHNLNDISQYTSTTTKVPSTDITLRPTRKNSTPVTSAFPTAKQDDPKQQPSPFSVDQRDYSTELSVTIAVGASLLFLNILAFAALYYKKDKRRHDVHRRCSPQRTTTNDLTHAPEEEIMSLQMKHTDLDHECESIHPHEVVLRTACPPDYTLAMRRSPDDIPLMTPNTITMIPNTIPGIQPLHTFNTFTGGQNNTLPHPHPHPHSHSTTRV

- diffusion coefficient of single GFP-Nrx1β molecules inside the contact with a cell expressing Nlg1-mCherry (uPAINT single particle tracking at 50 Hz; Dout = 0.3 µm^2/s outside the contact) [1]: 0.04 µm^2/s
- enrichment of GFP-Nrx1β at cell–cell contacts between co-cultured COS-7 cells expressing GFP-Nrx1β and cells expressing Nlg1-mCherry (fluorescence microscopy) [2]: 3.9
Substance: GFP-tagged neurexin-1β (from UniProt Q63373 47-468) (receptor)
